Test results reported in patent publication US20020159976A1.

What was measured:
[1] = target: T1, casein peptide αs1-casein(1-17) (UniProt P02662)
T1 sequence: RPKHPIKHQGLPQEVLN

[2] = target: laminin from the basement membrane of Engelbreth-Holm-Swarm mouse sarcoma (mouse) (UniProt P19137); experiment: dot blot, ~1 ug ligand on nitrocellulose, 125I-labelled binder, autoradiograph density divided by Ponceau S density, mean of two dots
[3] = target: fibronectin from human plasma (human) (UniProt P02751); experiment: as above
Sequence of UniProt P02751 (P02751 other isoform, or with tags, fused parts or gaps limits assumed): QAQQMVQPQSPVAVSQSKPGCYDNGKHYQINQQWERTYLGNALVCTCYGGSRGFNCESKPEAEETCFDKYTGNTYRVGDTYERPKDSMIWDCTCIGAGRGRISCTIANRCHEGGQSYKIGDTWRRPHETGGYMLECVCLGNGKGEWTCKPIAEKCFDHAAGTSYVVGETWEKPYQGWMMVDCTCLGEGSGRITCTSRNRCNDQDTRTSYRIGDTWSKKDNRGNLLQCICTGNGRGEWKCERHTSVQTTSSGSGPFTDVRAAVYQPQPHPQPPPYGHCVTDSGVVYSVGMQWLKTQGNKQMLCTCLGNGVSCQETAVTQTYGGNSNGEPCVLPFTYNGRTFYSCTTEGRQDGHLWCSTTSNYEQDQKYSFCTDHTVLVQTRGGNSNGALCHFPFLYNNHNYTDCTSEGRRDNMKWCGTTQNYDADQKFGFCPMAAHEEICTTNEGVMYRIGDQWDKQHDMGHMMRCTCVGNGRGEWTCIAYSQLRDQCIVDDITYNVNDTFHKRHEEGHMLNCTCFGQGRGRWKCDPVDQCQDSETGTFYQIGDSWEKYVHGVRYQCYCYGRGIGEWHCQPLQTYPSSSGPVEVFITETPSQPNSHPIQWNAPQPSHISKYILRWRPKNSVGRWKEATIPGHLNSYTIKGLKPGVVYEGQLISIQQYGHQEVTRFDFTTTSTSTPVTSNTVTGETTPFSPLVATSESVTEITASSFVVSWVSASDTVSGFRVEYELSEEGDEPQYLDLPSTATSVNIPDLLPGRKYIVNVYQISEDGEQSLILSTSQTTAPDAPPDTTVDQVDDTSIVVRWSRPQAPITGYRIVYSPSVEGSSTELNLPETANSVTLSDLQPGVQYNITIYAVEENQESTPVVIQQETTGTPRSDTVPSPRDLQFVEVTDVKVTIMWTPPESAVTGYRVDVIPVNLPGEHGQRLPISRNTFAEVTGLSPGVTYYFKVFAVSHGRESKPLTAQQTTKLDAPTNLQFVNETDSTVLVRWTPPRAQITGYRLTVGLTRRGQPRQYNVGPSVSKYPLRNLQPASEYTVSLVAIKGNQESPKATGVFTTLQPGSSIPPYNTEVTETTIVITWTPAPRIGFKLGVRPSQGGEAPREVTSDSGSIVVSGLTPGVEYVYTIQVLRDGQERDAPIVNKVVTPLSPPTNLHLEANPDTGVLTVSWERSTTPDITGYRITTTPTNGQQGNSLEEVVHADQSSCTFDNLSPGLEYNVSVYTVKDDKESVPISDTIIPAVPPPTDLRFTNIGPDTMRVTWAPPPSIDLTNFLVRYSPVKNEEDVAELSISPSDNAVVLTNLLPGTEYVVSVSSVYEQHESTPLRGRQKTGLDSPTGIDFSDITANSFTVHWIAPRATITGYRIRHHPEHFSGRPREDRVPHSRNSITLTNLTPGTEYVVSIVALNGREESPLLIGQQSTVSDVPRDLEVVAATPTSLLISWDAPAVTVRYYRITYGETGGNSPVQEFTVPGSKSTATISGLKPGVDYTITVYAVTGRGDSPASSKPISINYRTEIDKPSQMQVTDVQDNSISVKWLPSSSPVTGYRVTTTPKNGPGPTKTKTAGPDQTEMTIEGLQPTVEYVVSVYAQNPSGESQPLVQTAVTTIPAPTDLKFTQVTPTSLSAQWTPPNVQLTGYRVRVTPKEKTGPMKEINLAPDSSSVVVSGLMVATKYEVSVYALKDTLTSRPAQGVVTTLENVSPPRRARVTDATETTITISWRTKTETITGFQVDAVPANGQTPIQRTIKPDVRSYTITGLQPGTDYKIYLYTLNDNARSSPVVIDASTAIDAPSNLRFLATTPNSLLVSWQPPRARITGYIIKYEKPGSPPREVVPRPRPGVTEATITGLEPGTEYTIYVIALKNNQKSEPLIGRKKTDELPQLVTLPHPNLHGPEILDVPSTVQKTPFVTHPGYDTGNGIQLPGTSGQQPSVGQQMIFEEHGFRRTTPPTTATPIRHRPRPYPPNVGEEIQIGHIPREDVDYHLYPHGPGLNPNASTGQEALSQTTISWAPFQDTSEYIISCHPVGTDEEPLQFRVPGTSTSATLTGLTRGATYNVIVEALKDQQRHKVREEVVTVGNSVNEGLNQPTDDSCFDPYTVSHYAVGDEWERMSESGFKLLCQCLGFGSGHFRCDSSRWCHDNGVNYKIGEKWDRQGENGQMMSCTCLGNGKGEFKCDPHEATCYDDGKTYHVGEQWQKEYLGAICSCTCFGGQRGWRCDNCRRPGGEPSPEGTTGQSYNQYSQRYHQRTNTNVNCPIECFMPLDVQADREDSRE

[4] = target: type III mucin partially purified from porcine stomach (porcine); experiment: as above
[5] = target: type IV collagen from human placenta (human) (UniProt P02462); experiment: as above
Sequence of UniProt P02462 (P02462 173-1440, chain 1 of 2): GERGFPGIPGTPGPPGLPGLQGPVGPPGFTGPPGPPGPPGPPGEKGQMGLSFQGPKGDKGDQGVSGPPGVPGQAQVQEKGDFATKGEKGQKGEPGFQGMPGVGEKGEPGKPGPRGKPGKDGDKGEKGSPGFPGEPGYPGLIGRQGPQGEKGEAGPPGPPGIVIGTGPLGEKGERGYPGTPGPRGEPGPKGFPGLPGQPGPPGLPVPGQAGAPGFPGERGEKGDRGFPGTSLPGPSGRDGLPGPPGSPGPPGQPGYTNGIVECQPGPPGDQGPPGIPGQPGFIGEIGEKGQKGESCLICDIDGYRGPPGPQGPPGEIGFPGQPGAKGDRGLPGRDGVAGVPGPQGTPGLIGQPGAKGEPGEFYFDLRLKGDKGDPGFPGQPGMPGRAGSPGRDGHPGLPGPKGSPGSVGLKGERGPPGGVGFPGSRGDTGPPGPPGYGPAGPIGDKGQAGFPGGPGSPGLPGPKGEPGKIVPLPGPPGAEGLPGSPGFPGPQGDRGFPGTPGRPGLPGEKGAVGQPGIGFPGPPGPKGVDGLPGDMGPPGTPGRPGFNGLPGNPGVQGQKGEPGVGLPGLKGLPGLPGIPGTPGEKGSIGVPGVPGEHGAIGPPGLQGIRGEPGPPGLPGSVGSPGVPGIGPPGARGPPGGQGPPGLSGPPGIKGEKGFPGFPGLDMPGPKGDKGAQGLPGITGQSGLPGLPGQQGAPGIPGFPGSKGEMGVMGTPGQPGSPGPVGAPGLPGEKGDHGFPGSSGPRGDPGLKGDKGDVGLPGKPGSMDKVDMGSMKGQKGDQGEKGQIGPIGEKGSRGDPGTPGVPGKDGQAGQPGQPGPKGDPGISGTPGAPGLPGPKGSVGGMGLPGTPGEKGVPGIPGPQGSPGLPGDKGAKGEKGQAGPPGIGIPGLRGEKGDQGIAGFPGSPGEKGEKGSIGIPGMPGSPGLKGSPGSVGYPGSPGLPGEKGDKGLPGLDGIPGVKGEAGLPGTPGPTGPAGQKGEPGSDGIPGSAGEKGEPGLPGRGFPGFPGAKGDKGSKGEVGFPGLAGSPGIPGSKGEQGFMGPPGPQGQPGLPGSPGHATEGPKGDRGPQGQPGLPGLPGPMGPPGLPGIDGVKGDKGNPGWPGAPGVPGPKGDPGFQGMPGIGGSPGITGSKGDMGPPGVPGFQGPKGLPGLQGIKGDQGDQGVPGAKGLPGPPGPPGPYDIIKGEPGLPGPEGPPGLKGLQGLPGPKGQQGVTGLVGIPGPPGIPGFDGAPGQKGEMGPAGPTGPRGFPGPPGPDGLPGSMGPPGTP
Sequence of UniProt P02462 (P08572 184-1484, chain 2 of 2, further chain): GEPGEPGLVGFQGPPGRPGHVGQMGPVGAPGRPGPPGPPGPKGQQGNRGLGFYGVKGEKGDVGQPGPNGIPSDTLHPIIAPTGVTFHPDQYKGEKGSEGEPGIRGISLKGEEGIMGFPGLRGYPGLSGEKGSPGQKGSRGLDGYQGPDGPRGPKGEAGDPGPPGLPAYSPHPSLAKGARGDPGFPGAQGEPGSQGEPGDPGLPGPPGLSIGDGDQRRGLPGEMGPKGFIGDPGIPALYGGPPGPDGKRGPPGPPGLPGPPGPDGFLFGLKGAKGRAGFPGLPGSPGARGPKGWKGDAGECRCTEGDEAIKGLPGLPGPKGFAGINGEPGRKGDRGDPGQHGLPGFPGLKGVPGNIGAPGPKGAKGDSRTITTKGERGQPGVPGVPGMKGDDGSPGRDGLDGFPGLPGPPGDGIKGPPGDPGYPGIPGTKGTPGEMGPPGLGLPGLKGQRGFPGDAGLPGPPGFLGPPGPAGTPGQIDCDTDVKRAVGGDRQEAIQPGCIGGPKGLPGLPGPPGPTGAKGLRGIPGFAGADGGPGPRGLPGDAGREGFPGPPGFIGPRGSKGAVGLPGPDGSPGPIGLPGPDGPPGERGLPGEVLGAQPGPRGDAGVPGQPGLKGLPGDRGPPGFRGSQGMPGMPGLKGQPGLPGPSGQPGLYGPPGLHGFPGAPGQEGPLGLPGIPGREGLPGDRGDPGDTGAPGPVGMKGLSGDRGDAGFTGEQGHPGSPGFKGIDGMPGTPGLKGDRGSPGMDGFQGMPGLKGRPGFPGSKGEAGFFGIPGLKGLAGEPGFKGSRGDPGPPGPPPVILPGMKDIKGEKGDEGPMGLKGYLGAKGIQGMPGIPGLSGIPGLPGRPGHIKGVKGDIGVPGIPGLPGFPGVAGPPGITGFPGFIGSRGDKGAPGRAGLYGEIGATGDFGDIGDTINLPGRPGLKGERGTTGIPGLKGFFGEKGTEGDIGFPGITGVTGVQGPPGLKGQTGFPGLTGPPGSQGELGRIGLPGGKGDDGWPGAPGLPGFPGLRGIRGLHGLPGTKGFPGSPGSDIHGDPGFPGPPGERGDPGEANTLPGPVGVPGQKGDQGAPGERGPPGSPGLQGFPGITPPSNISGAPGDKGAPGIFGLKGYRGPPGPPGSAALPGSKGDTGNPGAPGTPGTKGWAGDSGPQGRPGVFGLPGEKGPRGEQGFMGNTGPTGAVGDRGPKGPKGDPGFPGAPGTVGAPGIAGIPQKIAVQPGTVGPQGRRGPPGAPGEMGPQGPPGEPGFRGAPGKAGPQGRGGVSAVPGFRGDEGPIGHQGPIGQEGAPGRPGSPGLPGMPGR

[6] = target: bovine serum albumin (bovine) (UniProt P02769); experiment: as above
[7] = target: type I collagen from calf skin (calf) (UniProt P02453); experiment: as above

Substance	height of the HPLC peak of unhydrolysed αs1-casein(1-17) after incubation with pepO-transformed HN001 (non-transformed: approximately 250 mAU) [1]	Relative mapA Binding (relative density) [2]	Relative mapA Binding (relative density) [3]	Relative mapA Binding (relative density) [4]	Relative mapA Binding (relative density) [5]	Relative mapA Binding (relative density) [6]	Relative mapA Binding (relative density) [7]
HN001 peptidase pepO	the major peak of unhydrolysed αs1-casein(1-17) had a height of approximately 150 mAU	–	–	–	–	–	–
mucus adhesion promoting (mapA) protein of Lactobacillus reuteri	–	0.83	0.67	2.57	0.78	0.76	1.02
